Assay [1] addresses T1, human CD47, cell-surface (on Jurkat cells, human red blood cells) (human, UniProt Q08722 19-323). Kind of assay: cell-based or functional assay.
In assay [2] the target is T1, human CD47, cell-surface (on Jurkat …). Description: flow cytometry, FITC-conjugated scFv on Jurkat cells, FITC MFI against log µg/ml. As for the experimental part:
FIG. 5: Binding of huCO-scFv to Jurkat cells. Jurkat cells incubated with increasing concentrations of FITC-conjugated huCO-scFv. FITC-intensity was analyzed by flow cytometry.
DPBS-washed cancer cell lines or RBCs were pelleted and washed with washing buffer (3% (w/v) BSA, 1% (w/v) sodium azide in DPBS) and incubated with Human BD Fc Block for 10 minutes before being plated into a round-bottom 96 well plate (2.5×10⁵ cells per well). The cells were then incubated with various concentrations of FITC-conjugated huCO-scFv, or human IgG4 isotype control as indicated for 1h on ice with slight agitation. All samples were prepared in duplicates. The cells were analyzed by flow cytometry after three washes in washing buffer. Excitation wavelength FITC: 488 nm, detection: 530/30 nm.
In general terms: Flow cytometry measures light scatter and fluorescence of single cells or particles in a stream.

Assay [3] has as its target T2, recombinant biotinylated CD47 (recCD47, SinoBiological 12283-H27H-B) (UniProt Q08722 19-139, biotinylated (AVI-tag)).
T2 construct: Bought protein; also called recombinant CD47
Kind of assay: SPR Biacore S200, biotinylated recCD47 on SA chip, scFv as analyte, single-cycle, 1:1 model, 25 C. As for the experimental part: The binding affinity of the huCO-mAbs to CD47 was determined via surface plasmon resonance (SPR) on a Biacore S200 system. Recombinant biotinylated CD47 was immobilized on an SA streptavidin chip to a level of 100 RU (in 10 mM NaAc pH5.0). […]
A 1:1 binding model was used to fit the data. All curves are well fitted to the 1:1 model. […] The affinity constant KD is calculated as kd/kₐ.
On the technique in general: Surface plasmon resonance follows binding to a sensor surface in real time, without labels.

The target of assay [4] is T1, human CD47, cell-surface (on Jurkat …). Description: flow cytometry on stimulated normal human B cells, FITC MFI against log µg/ml. As for the experimental part:
FIG. 6: Hemagglutination and binding of red blood cells (RBCs) by huCO-scFv. (A) 2% RBCs (v/v in PBS) were incubated with increasing concentrations of the indicated antibodies or fragments for 30 minutes. A small punctate circle indicates no hemagglutination, while a diffuse hazy pattern indicates hemagglutination. (B) 2% RBCs (v/v in PBS) were incubated with increasing concentrations of FITC-conjugated CO201-scFv and analyzed by flow cytometry. (C and D) B cells were isolated from buffycoats of healthy human donors using CD19 Dynabeads and stimulated with 1 μg/ml CpG and RP105 for 24 hours. (C) B cells were incubated with the indicated antibodies or fragments at increasing concentrations and analyzed for binding by flow cytometry. (D) B cells were incubated with the indicated antibodies or fragments at concentrations in μg/ml for 3 hours, followed by staining with Annexin V and 7-AAD. % PCD=Annexin V-positive cells.

Assay [5] has the same target. Description: flow cytometry on Jurkat cells, detection with anti-His6-FITC, four parameter curve fit. The procedure: PBS-washed cancer cell lines or RBCs were pelleted and washed with washing buffer (3% (w/v) BSA, 1% (w/v) sodium azide in PBS) and incubated with Human BD Fc Block for 10 minutes before being plated into a round-bottom 96 well plate (2.5×10⁵ cells per well). The cells were then incubated with various concentrations of CO-1 scFv, or appropriate isotype controls as indicated for 1 h on ice with slight agitation. All samples were prepared in duplicates. Cells were washed twice, resuspended in cold His staining solution (1 μg/ml His₆-FITC in washing buffer), and incubated for 30 minutes on ice with slight agitation. Cells were analyzed by flow cytometry after two washes. Excitation wavelength FITC: 488 nm, detection: 530/30 nm.
The cells were incubated with increasing concentrations of CO-1 scFv, or isotype control, followed by incubation with an anti-His, FITC secondary antibody. […] The EC₅₀ for CO-1 scFv was analyzed by four parameter […] curve fitting in GraphPad and determined to be 0.05 ng/ml.

Assay [6] has as its target T2, recombinant biotinylated CD47 (recCD47, …). Kind of assay: SPR Biacore S200, biotinylated recCD47 on SA chip, scFv as analyte, single-cycle, 1:1 model, 25 C. The procedure: The affinity of CO-1 scFv to CD47 was determined via surface plasmon resonance (SPR) on a Biacore S200 system. Recombinant biotinylated CD47 was immobilized on an SA streptavidin chip to a level of 100 RU (in 10 mM NaAc pH 5.0). CO-1 scFv reacted with recombinant CD47 at gradient concentrations
(§1) A 1:1 binding model was used to fit the data. All curves are well fitted to the 1:1 model.
The source holds these as a separate data set.

Assay [7] shares this target. Description: SPR Biacore S200, biotinylated recCD47 on SA chip, fusion protein as analyte, single-cycle, 1:1 model, 25 C. As for the experimental part:
The binding affinity of CO201-scFv-Fc-mono as described in Example 4 to CD47 was determined via surface plasmon resonance (SPR) on a Biacore S200 system. Recombinant biotinylated CD47 was immobilized on an SA streptavidin chip to a level of 100 RU (in 10 mM NaAc pH 5.0). CO201-scFv-Fc-mono reacted with recombinant CD47 at gradient concentrations
as §1

The target in assay [8] is T1, human CD47, cell-surface (on Jurkat …). Description: flow cytometry on Jurkat cells, FITC MFI against log µg/ml.

Several values for one entry are separate records, joined by “and”; a condition that tells them apart may be missing. Equal entries are not always repeated.

T2 sequence (Q08722 19-139 limits assumed): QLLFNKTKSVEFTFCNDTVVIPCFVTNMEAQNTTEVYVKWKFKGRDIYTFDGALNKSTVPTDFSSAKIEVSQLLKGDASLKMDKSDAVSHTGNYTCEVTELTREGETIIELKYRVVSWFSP
T1 sequence (Q08722 19-323 limits assumed): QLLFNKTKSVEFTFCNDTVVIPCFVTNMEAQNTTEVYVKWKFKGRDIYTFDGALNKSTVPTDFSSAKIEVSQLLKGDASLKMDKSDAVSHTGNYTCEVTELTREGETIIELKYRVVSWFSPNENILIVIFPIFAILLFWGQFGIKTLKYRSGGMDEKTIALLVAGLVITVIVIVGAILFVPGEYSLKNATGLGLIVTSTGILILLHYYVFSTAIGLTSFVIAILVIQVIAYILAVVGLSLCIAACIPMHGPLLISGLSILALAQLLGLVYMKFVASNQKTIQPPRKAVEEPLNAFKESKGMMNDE

B1: CO201-scFv (scFv)
scFv: QVQLVQSGSELKKPGASVKVSCKASGYTFTNFGMHWVRQAPGQGLEWMGWINTYTGEPTYTDDFKGRFVFSLDTSVSTAYLQISSLKAEDTAVYYCARGDYRYGDSWGQGTTVTVSSGGGGSGGGGSGGGGSDIVMTQTPLSLSVTPGQPASISCRSSQSLVHSNGKTYLHWYLQKPGQPPQLLIYRVSNRFSGVPDRFSGSGSGTDFTLKISRVEAEDVGVYYCSQSTHVPFTFGQGTKLEIK
notes: FITC-conjugated in the flow cytometry assays, unconjugated in SPR; also called huCO-scFv (collective); humanized scFv version of CO201
One may read the EC50 (read off the curve) as the concentration that produces a half-maximal response. Read a high EC50 (read off the curve) as a less potent agent. The Kd is the free concentration of one partner at which half of the binding sites on the other are occupied at equilibrium, for simple one-to-one binding. Broadly, the koff is the rate constant with which the complex falls apart. What is called kon is the second-order rate constant of association. For the molecule B1, the “programmed cell death (PCD) of Jurkat cells, Annexin V-positive cells after 3 hours” value (“programmed cell death (PCD)” for short) in assay [1] is around 60%. For the same molecule, the “EC50 (read off the curve)” value in assay [2] was around 2 µg/mL. In addition, in assay [3], the Kd worked out at 0.061 nM, the koff is 0.00026 s⁻¹ and the kon worked out at 4.3e+06 M⁻¹ s⁻¹.

B2: CO209-scFv (scFv)
scFv: QVQLVQSGSELKKPGASVKVSCKASGYTFTNFGMHWVRQAPGQGLEWMGWINTYTGEPTYTDDFKGRFVFSLDTSVSTAYLQISSLKAEDTAVYYCARGDYRYGDSWGQGTTVTVSSGGGGSGGGGSGGGGSDIVMTQTPLSLSVTPGQPASISCRSSQSLVHSNGKTYLHWYLQKPGQSPKLLIYRVSNRFSGVPDRFSGSGSGTDFTLKISRVEAEDVGVYYCSQSTHVPFTFGQGTKLEIK
modifications: FITC-conjugated in the flow cytometry assays, sites not stated; unconjugated in SPR.
notes: FITC-conjugated in the flow cytometry assays, unconjugated in SPR; also called huCO-scFv (collective)
B2: the “programmed cell death (PCD)” value in assay [1] was around 60%. The “EC50 (read off the curve)” value in assay [2] was around 2 µg/mL. Further, the “EC50 (read off the curve)” value in assay [4] is around 4 µg/mL. Moreover, in assay [3], the Kd amounted to 0.033 nM, the koff came out at 0.00017 s⁻¹ and the kon turned out to be 5.1e+06 M⁻¹ s⁻¹.

B3: CO213-scFv (scFv)
scFv: QVQLVQSGSELKKPGASVKVSCKASGYTFTNFGMHWVRQAPGQGLKWMGWINTYTGEPTYTDDFKGRFVFSLDTSVSTAYLQISSLKAEDTAVYYCARGDYRYGDSWGQGTTVTVSSGGGGSGGGGSGGGGSDIVMTQTPLSLSVTPGQPASISCRSSQSLVHSNGKTYLHWYLQKPGQPPQLLIYRVSNRFSGVPDRFSGSGSGTDFTLKISRVEAEDVGVYYCSQSTHVPFTFGQGTKLEIK
modifications: FITC-conjugated in the flow cytometry assays, sites not stated; unconjugated in SPR.
notes: as for B2
Regarding B3, the “programmed cell death (PCD)” value in assay [1] was around 60%. Besides, the “EC50 (read off the curve)” value in assay [2] is around 1 µg/mL. In assay [3], the Kd came to 0.048 nM, the koff was 0.00021 s⁻¹ and the kon was determined as 4.4e+06 M⁻¹ s⁻¹.

B4: CO-1 scFv (scFv)
scFv: QIQLVQSGPELKKPGETVKISCKASGYTFTNFGMHWVKQAPGKGLKWMGWINTYTGEPTYTDDFKGRFAFSLETSASTAYLQINSLKNEDTATFFCTRGDYRYGDSWGQGTTLTVSSGGGGSGGGGSGGGGSDVVMTQTPLSLPVSLGDQASISCRSSQSLVHSNGKTYLHWYLQKPGQSPKLLIYRVSNRFSGVPDRFSGSGSGTDFTLKISRIEAEDLGVYFCSQSTHVPFTFGSGTKLEIK
notes: Murine VH and VL of mCO-1 in single chain format; Detected on cells with anti-His6-FITC, so it carries a His tag; also called CO-1 scFv fragment; scFv fragment of mCO-1
By EC50 is commonly meant the concentration at which the effect is half-maximal. Low readings indicate an effect from little substance, high ones a need for much substance. B4: a half-maximal response in assay [5] (EC50) required 0.05 ng/mL. Moreover, in assay [6], the Kd was 0.179 nM and 0.18 nM; the koff came to 0.0056 s⁻¹; the kon turned out to be 3.1e+07 M⁻¹ s⁻¹.

B5: CO201-scFv-Fc-mono (Fc fusion)
chain 1: QVQLVQSGSELKKPGASVKVSCKASGYTFTNFGMHWVRQAPGQGLEWMGWINTYTGEPTYTDDFKGRFVFSLDTSVSTAYLQISSLKAEDTAVYYCARGDYRYGDSWGQGTTVTVSSGGGGSGGGGSGGGGSDIVMTQTPLSLSVTPGQPASISCRSSQSLVHSNGKTYLHWYLQKPGQPPQLLIYRVSNRFSGVPDRFSGSGSGTDFTLKISRVEAEDVGVYYCSQSTHVPFTFGQGTKLEIKSKYGPPCPSCPAPEFLGGPSVFLFPPKPKDTLMISRTPEVTCVVVDVSQEDPEVQFNWYVDGVEVHNAKTKPREEQFNSTYRVVSVLTVLHQDWLNGKEYKCKVSNKGLPSSIEKTISKAKGQPREPQVYTLPPSQEEMTKNQVSLWCLVKGFYPSDIAVEWESNGQPENNYKTTPPVLDSDGSFFLYSRLTVDKSRWQEGNVFSCSVMHEALHNHYTQKSLSLSLGK
chain 2: SKYGPPCPSCPAPEFLGGPSVFLFPPKPKDTLMISRTPEVTCVVVDVSQEDPEVQFNWYVDGVEVHNAKTKPREEQFNSTYRVVSVLTVLHQDWLNGKEYKCKVSNKGLPSSIEKTISKAKGQPREPQVYTLPPSQEEMTKNQVSLSCAVKGFYPSDIAVEWESNGQPENNYKTTPPVLDSDGSFFLVSRLTVDKSRWQEGNVFSCSVMHEALHNHYTQKSLSLSLGK
notes: Knob-hole heterodimer with a single scFv, 77.3 kDa; FITC-conjugated in the flow cytometry assay on RBCs; also called huCO201-scFv-Fc-mono; huCO-scFv-Fc-mono
With B5, in assay [7], the Kd was 0.097 nM, the koff came out at 0.0027 s⁻¹ and the kon was found to be 2.8e+07 M⁻¹ s⁻¹.

B6: CO-1.4 (antibody, V domains shown)
VH: QIQLVQSGPELKKPGETVKISCKASGYTFTNFGMHWVKQAPGKGLKWMGWINTYTGEPTYTDDFKGRFAFSLETSASTAYLQINSLKNEDTATFFCTRGDYRYGDSWGQGTTLTVSS
VL: DVVMTQTPLSLPVSLGDQASISCRSSQSLVHSNGKTYLHWYLQKPGQSPKLLIYRVSNRFSGVPDRFSGSGSGTDFTLKISRIEAEDLGVYFCSQSTHVPFTFGSGTKLEIK
notes: Divalent comparator antibody against CD47; also called full length IgG4 format of the CO-1 antibody; chimeric IgG4 comparator antibody
For the molecule B6, the entries for the “EC50 (read off the curve)” value in assay [8] and in assay [4] were around 0.3 µg/mL and around 0.2 µg/mL, respectively.

For the origin of these results see patent US20260109764A1 (CAEDO ONCOLOGY, published 2026).
